Publication doi:10.1101/2021.11.04.467292

Assays:
[1] = biological target: microtubules polymerised from bovine tubulin, paclitaxel-stabilised (bovine) (UniProt Q6B856); assay: two-MT assay
[2] = biological target: microtubules polymerised from bovine tubulin, paclitaxel-stabilised (bovine) (UniProt Q6B856); assay: TIRF microscopy of Qdot-bound motor on immobilised microtubules
[3] = biological target: KLIF motor domain lacking the N-terminal extension fused to GFP (Trypanosoma brucei); assay: gliding filament motility assay

KLIF motor domain construct (amino acids 1-672) fused to a C-terminal GFP (mClover3) tag (domain or fragment)
half-life of plus end to plus end tethering of two MTs by KLIF [1]: 1.7 min

KLIF motor domain construct (amino acids 1-672) fused to a C-terminal biotin tag (domain or fragment)
half-life of association with MTs [2]: > 5 min

microtubules polymerised from bovine tubulin, paclitaxel-stabilised (from UniProt Q6B856 1-445) (complex)
percent of filaments dissociated within 2.5 minutes [3]: > 50%
